Laboratory results reported in US20250313607A1.

Legend:
Assay in all cases: cell-based or functional assay
[1] = molecular target: IL-10R NatE MESA receptor pair in which both ECDs are IL-10Rα (human; tobacco etch virus)
[2] = molecular target: IL-10R NatE MESA receptor pair in which both ECDs are IL-10Rβ (human; tobacco etch virus)
[3] = molecular target: IL-10R NatE MESA receptor pair: CTEVp receptor with an IL-10Ra signal sequence, ECD, and TMD paired with a NTEVp receptor with an IL-10Rb ECD and TMD and a hCD8a signal sequence (human; tobacco etch virus)
[4] = molecular target: VEGFR NatE MESA receptor pair: CTEVp (190K) receptor with a VEGFR1 signal sequence, ECD, and TMD paired with a NTEVp (WT) receptor with a VEGFR2 signal sequence, ECD, and TMD (human; tobacco etch virus)

Sequence of human vascular endothelial growth factor VEGFA165 (P15692 other isoform, or with tags, fused parts or gaps limits assumed): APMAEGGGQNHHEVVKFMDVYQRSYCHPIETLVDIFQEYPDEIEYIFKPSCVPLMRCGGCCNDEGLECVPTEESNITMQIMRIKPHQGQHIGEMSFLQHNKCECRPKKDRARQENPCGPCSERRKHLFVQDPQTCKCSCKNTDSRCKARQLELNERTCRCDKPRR

Substance	fold induction of reporter expression, transfected receptors with co-expressed human IL-10 (fold induction) [1]	fold induction of reporter expression, transfected receptors with co-expressed human IL-10 (fold induction) [2]	IL-10 concentration at which reporter expression plateaus, genomically integrated receptors in Jurkat T cells [3] [ng/mL]	IL-10 concentration at which reporter expression saturates, genomically integrated receptors in HEK293FT cells [3] [ng/mL]	lowest IL-10 concentration distinguished by reporter expression, genomically integrated receptors in HEK293FT cells [3] [ng/mL]	lowest IL-10 dose detected, Jurkats sorted for the top octile of mNeonGreen expression [3] [ng/mL]	lowest IL-10 dose with a significant increase in reporter expression, antibiotic-selected Jurkat T cells [3] [ng/mL]	dose of recombinant VEGF giving the highest reporter signal, genomically integrated receptors in HEK293FT cells [4] [ng/mL]
human interleukin 10 (IL-10) (from UniProt P22301 19-178) (ligand)	1	1	250	250	16	2	16	
human vascular endothelial growth factor VEGFA165 (from UniProt P15692 27-191) (ligand)								100
